Test results taken from patent publication US20240181040A1.
Where two headings read alike, the source gives them in different places.

Columns and labels:
[1] = target: BG505 T332N gp160 on pseudo-typed virus (HIV-1 clade A, BG505)
[2] = target: BG505 SOSIP.664 envelope trimer protein (HIV-1 clade A, BG505); assay: BLI, antibody on anti-human Fc biosensor, Env in solution, global fit
[3] = target: clade C HIV-1 1086.c ENV SOSIP trimer (HIV-1 clade C, 1086.c); assay: as above
[4] = target: BG505 SOSIP.664 envelope trimer protein (HIV-1 clade A, BG505); assay: BLI, antibody on anti-human Fc biosensor, Env protein as analyte
[5] = target: clade C HIV-1 1086.c ENV SOSIP trimer (HIV-1 clade C, 1086.c); assay: as above
[6] = target: 1086.c gp160 wt on pseudo-typed virus (HIV-1 clade C, 1086.c)
[7] = target: clade C HIV-1 1086.c ENV SOSIP trimer (HIV-1 clade C, 1086.c); assay: BLI, antibody on anti-human Fc biosensor, Env protein as analyte; the sheet has this in the 1086.C SOSIP rows, text paragraph 67 gives this KD for BG505 SOSIP.664
[8] = target: 1086.c gp160 wt on pseudo-typed virus (HIV-1 clade C, 1086.c); assay: cell-based or functional assay
[9] = target: HIV-1 Env 1086.C D7gp120 envelope glycoprotein (HIV-1 clade C, 1086.c); assay: BLI, antibody on anti-human Fc biosensor, Env in solution, global fit
[10] = target: HIV-1 Env 1086.C gp140C envelope glycoprotein (HIV-1 clade C, 1086.c); assay: as above
[11] = target: clade C HIV-1 1086.c ENV SOSIP trimer (HIV-1 clade C, 1086.c); assay: as above; remark: listed apart in the source
[12] = target: HIV-1 Env 1086.C D7gp120 envelope glycoprotein (HIV-1 clade C, 1086.c); assay: BLI, antibody on anti-human Fc biosensor, Env protein as analyte
[13] = target: HIV-1 Env 1086.C gp140C envelope glycoprotein (HIV-1 clade C, 1086.c); assay: as above
[14] = target: clade C HIV-1 1086.c ENV SOSIP trimer (HIV-1 clade C, 1086.c); assay: as above; remark: listed apart in the source
[15] = target: clade C HIV-1 1086.c ENV SOSIP trimer (HIV-1 clade C, 1086.c); assay: BLI, antibody on anti-human Fc biosensor, Env protein as analyte; text paragraph 65 prints 0.12 nM
[16] = target: BG505 SOSIP.664 envelope trimer protein (HIV-1 clade A, BG505); assay: BLI, antibody on anti-human Fc biosensor, Env protein as analyte; text paragraph 65 prints <1.03x10^-3 nM

Substance | neutralisation IC50, pseudo-typed virus on TZM-bl cells [1] [µg/mL] | Kd [2] [nM] | Kd [3] [nM] | koff [4] [s⁻¹] | kon [4] [M⁻¹ s⁻¹] | koff [5] [s⁻¹] | kon [5] [M⁻¹ s⁻¹] | neutralisation IC50, pseudo-typed virus on TZM-bl cells [6] [µg/mL] | further results
2G12 (antibody) | 0.29 | < 0.001 | 0.07 | 4.83e-08 | 254000 | 5.61e-05 | 821000 |  | 
3BNC117 (antibody) | 0.007 | 0.00108 | 0.3 | < 1e-07 | 44700 | 3.92e-05 | 132000 | 0.21 | 
10-1074 (antibody) | 0.003 | < 0.001 |  | < 1e-07 | 48600 |  |  |  | 
35O22 (antibody) |  | 0.0013 |  |  |  |  |  | > 4 | Kd [7]: 0.0013 nM
3869 (antibody) |  | 0.002 | < 0.001 | 4.83e-08 | 24200 | < 1e-07 | 2.56e+06 | > 4 | 
CD4-IgG2 (Fc fusion) | > 4 |  |  |  |  |  |  |  | neutralization of pseudotyped virus in TZM-bl cells, IC50 [8]: 1.72 µg/mL
CH58 (antibody) |  |  | < 0.001 |  |  |  | 680000 |  | Kd [9]: 9.31 nM; Kd [10]: 0.22 nM; Kd [11]: < 0.00103 nM; koff [12]: 0.0012 s⁻¹; kon [12]: 129000 M⁻¹ s⁻¹; koff [13]: 1.25e-05 s⁻¹; kon [13]: 56800 M⁻¹ s⁻¹; koff [14]: < 1e-07 s⁻¹; kon [14]: 680000 M⁻¹ s⁻¹
CH59 (antibody) |  |  |  |  |  |  |  | > 4 | Kd [9]: 1.81 nM; Kd [10]: 0.0012 nM; Kd [11]: < 0.001 nM; koff [12]: 0.000105 s⁻¹; kon [12]: 57900 M⁻¹ s⁻¹; koff [13]: < 1e-07 s⁻¹; kon [13]: 10200 M⁻¹ s⁻¹; koff [14]: < 1e-07 s⁻¹; kon [14]: 63700 M⁻¹ s⁻¹
CH106 (antibody) | > 4 | 0.00351 | 5.33 | < 1e-07 | 13700 | 6.64e-05 | 12500 | 3.63 | 
F105 (antibody) |  | 0.0129 | 0.00172 | < 1e-07 | 3750 | < 1e-07 | 30400 |  | 
HJ16 (antibody) | > 4 | 1.29 | 3.59 | 0.000128 | 99500 | 0.000151 | 42200 | 3.82 | 
IgG1 b12 (antibody) |  |  | 0.12 |  |  | 9.85e-05 | 811000 | > 4 | Kd [15]: 0.122 nM
N6 (antibody) | 0.031 | 0.00114 | < 0.001 | < 1e-07 | 42200 | < 1e-07 | 52300 | 0.023 | 
PG09 (antibody) | 0.02 | 2.1 | 12.4 | 0.0001 | 47600 | 0.000475 | 38200 |  | 
PG16 (antibody) | 0.011 | 7.35 |  | 0.000358 | 48600 |  |  |  | 
PGT121 (antibody) | 0.003 | 0.15 | 0.17 | 5.35e-06 | 34900 | 7.93e-05 | 460000 |  | neutralization of pseudotyped virus in TZM-bl cells, IC50 [8]: < 0.001 µg/mL
PGT126 (antibody) | 0.006 | < 0.001 | 0.37 | < 1e-07 | 268000 | 0.000462 | 1.26e+06 |  | 
PGT128 (antibody) | 0.003 | < 0.001 | 0.35 | < 1e-07 | 78600 | 0.000414 | 1.18e+06 |  | 
PGT145 (antibody) | < 0.001 | 2.57 | 1.22 | 0.000482 | 187000 | 0.00194 | 1.59e+06 |  | 
VRC01 (antibody) | 0.06 | 0.0021 | < 0.001 | < 1e-07 | 23200 | < 1e-07 | 72800 | 0.49 | 
VRC03 (antibody) | 2.83 | < 0.00103 |  | < 1e-07 | 78600 |  |  |  | Kd [16]: < 0.001 nM
VRC-CH31 (antibody) | 0.011 |  |  |  |  |  |  | 2.16 | 
